Assay results taken from the supplement of paper PMC5998384.

How the values were obtained:
HeLa Kyoto [1] = assay: thermal stability score vs G1/S (z-score of summed log2 fold changes over temperatures); higher = more thermally stable than in G1/S
HeLa Kyoto [2] = assay: solubility change mitosis vs G1/S (difference of NP-40 vs SDS log2 ratios) (log2 ratio difference); higher = more soluble in mitosis
HeLa Kyoto [3] = assay: melting temperature (median over replicates), in situ; higher = more thermally stable
HeLa Kyoto [4] = assay: solubility in G1/S (NP-40 vs SDS abundance) (log2 ratio); higher = more soluble; conditions: cell cycle stage: G1/S
[5] = cell cycle stage: early G1 (4.5 h after nocodazole release)
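Throughout, for melting temperature (median over replicates), in situ: HeLa Kyoto cells synchronized by double thymidine or nocodazole block, proteins quantified by TMT10plex mass spectrometry, three independent biological replicates.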
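Throughout, for solubility change mitosis vs G1/S (difference of NP-40 vs SDS log2 ratios): synchronized HeLa Kyoto cells (double thymidine block for G1/S, nocodazole release for mitosis), protein amounts in NP-40 versus SDS lysates quantified by mass spectrometry, three biological replicates.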
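Throughout, for solubility in G1/S (NP-40 vs SDS abundance): HeLa Kyoto cells arrested at G1/S by double thymidine block, proteins quantified by TMT10plex mass spectrometry in mild NP-40 versus SDS extracts, three biological replicates.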
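Throughout, for thermal stability score vs G1/S (z-score of summed log2 fold changes over temperatures): synchronized HeLa Kyoto cells, proteins quantified by TMT10plex mass spectrometry, three biological replicates, mitosis taken 0.5 h after nocodazole release, G1/S directly after double thymidine block.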

RPIA, sequence (chain, as listed by the source): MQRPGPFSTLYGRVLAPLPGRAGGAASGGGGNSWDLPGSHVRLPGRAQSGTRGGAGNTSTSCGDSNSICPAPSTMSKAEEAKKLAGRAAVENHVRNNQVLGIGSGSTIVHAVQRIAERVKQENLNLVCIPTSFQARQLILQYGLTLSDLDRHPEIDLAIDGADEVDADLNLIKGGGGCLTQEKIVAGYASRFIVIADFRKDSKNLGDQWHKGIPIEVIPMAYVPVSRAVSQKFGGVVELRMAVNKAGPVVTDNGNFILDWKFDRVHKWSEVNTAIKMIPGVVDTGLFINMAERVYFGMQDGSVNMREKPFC

Substance | thermal stability score (HeLa Kyoto [1]; [5]) | thermal stability score (HeLa Kyoto [1]; cell cycle stage: mitosis) | solubility change mitosis (log2) (HeLa Kyoto [2]) | melting temperature (HeLa Kyoto [3]; cell cycle stage: G1/S) | melting temperature (HeLa Kyoto [3]; cell cycle stage: mitosis) | solubility in G1/S (log2) (HeLa Kyoto [4])
MVPGEENQLVPKEDVFWRCRQNIFDEMKKKFLQIENAAEEPRVLCIIQDTTNSKTVNERITLNLPASTPVRKLFEDVANKVGYINGTFDLVWGNGINTADMAPLDHTSDKSLLDANFEPGKKNFLHLTDKDGEQPQILLEDSSAGEDSVHDRFIGPLPREGSGGSTSDYVSQSYSYSSILNKSETGYVGLVNQAMTCYLNSLLQTLFMTPEFRNALYKWEFEESEEDPVTSIPYQLQRLFVLLQTSKKRAIETTDVTRSFGWDSSEAWQQHDVQELCRVMFDALEQKWKQTEQADLINELYQGKLKDYVRCLECGYEGWRIDTYLDIPLVIRPYGSSQAFASVEEALHAFIQPEILDGPNQYFCERCKKKCDARKGLRFLHFPYLLTLQLKRFDFDYTTMHRIKLNDRMTFPEELDMSTFIDVEDEKSPQTESCTDSGAENEGSCHSDQMSNDFSNDDGVDEGICLETNSGTEKISKSGLEKNSLIYELFSVMVHSGSAAGGHYYACIKSFSDEQWYSFNDQHVSRITQEDIKKTHGGSSGSRGYYSSAFASSTNAYMLIYRLKDPARNAKFLEVDEYPEHIKNLVQKERELEEQEKRQREIERNTCKIKLFCLHPTKQVMMENKLEVHKDKTLKEAVEMAYKMMDLEEVIPLDCCRLVKYDEFHDYLERSYEGEEDTPMGLLLGGVKSTYMFDLLLETRKPDQVFQSYKPGEVMVKVHVVDLKAESVAAPITVRAYLNQTVTEFKQLISKAIHLPAETMRIVLERCYNDLRLLSVSSKTLKAEGFFRSNKVFVESSETLDYQMAFADSHLWKLLDRHANTIRLFVLLPEQSPVSYSKRTAYQKAGGDSGNVDDDCERVKGPVGSLKSVEAILEESTEKLKSLSLQQQQDGDNGDSSKSTETSDFENIESPLNERDSSASVDNRELEQHIQTSDPENFQSEERSDSDVNNDRSTSSVDSDILSSSHSSDTLCNADNAQIPLANGLDSHSITSSRRTKANEGKKETWDTAEEDSGTDSEYDESGKSRGEMQYMYFKAEPYAADEGSGEGHKWLMVHVDKRITLAAFKQHLEPFVGVLSSHFKVFRVYASNQEFESVRLNETLSSFSDDNKITIRLGRALKKGEYRVKVYQLLVNEQEPCKFLLDAVFAKGMTVRQSKEELIPQLREQCGLELSIDRFRLRKKTWKNPGTVFLDYHIYEEDINISSNWEVFLEVLDGVEKMKSMSQLAVLSRRWKPSEMKLDPFQEVVLESSSVDELREKLSEISGIPLDDIEFAKGRGTFPCDISVLDIHQDLDWNPKVSTLNVWPLYICDDGAVIFYRDKTEELMELTDEQRNELMKKESSRLQKTGHRVTYSPRKEKALKIYLDGAPNKDLTQD [USP47] | 0.111 | 0.427 | -0.168 | 49.6 °C | 49.7 °C | -0.111
PIK3C2B | -0.0552 | -0.413 | -0.142 | 50.1 °C | 49.7 °C | -0.164
MAGAGGGNDIQWCFSQVKGAVDDDVAEADIISTVEFNHSGELLATGDKGGRVVIFQQEQENKIQSHSRGEYNVYSTFQSHEPEFDYLKSLEIEEKINKIRWLPQKNAAQFLLSTNDKTIKLWKISERDKRPEGYNLKEEDGRYRDPTTVTTLRVPVFRPMDLMVEASPRRIFANAHTYHINSISINSDYETYLSADDLRINLWHLEITDRSFNIVDIKPANMEELTEVITAAEFHPNSCNTFVYSSSKGTIRLCDMRASALCDRHSKLFEEPEDPSNRSFFSEIISSISDVKFSHSGRYMMTRDYLSVKIWDLNMENRPVETYQVHEYLRSKLCSLYENDCIFDKFECCWNGSDSVVMTGSYNNFFRMFDRNTKRDITLEASRENNKPRTVLKPRKVCASGKRKKDEISVDSLDFNKKILHTAWHPKENIIAVATTNNLYIFQDKVN [PPP2R2A] | -0.543 | -3.42 | -0.194 | 54.7 °C | 54.2 °C | -0.0929
MEKRETFVQAVSKELVGEFLQFVQLDKEASDPFSLNELLDELSRKQKEELWQRLKNLLTDVLLESPVDGWQVVEAQGEDNMETEHGSKMRKSIEIIYAITSVILASVSVINESENYEALLECVIILNGILYALPESERKLQSSIQDLCVTWWEKGLPAKEDTGKTAFVMLLRRSLETKTGADVCRLWRIHQALYCFDYDLEESGEIKDMLLECFININYIKKEEGRRFLSCLFNWNINFIKMIHGTIKNQLQGLQKSLMVYIAEIYFRAWKKASGKILEAIENDCIQDFMFHGIHLPRRSPVHSKVREVLSYFHHQKKVRQGVEEMLYRLYKPILWRGLKARNSEVRSNAALLFVEAFPIRDPNLHAIEMDSEIQKQFEELYSLLEDPYPMVRSTGILGVCKITSKYWEMMPPTILIDLLKKVTGELAFDTSSADVRCSVFKCLPMILDNKLSHPLLEQLLPALRYSLHDNSEKVRVAFVDMLLKIKAVRAAKFWKICPMEHILVRLETDSRPVSRRLVSLIFNSFLPVNQPEEVWCERCVTLVQMNHAAARRFYQYAHEHTACTNIAKLIHVIRHCLNACIQRAVREPPEDEEEEDGREKENVTVLDKTLSVNDVACMAGLLEIIVILWKSIDRSMENNKEAKLYTINKFASVLPEYLKVFKDDRCKIPLFMLMSFMPASAVPPFSCGVISTLRSREEGAVDKSYCTLLDCLCSWGQVGHILELVDNWLPTEHAQAKSNTASKGRVQIHDTRPVKPELALVYIEYLLTHPKNRECLLSAPRKKLNHLLKALETSKADLESLLQTPGGKPRGFSEAAAPRAFGLHCRLSIHLQHKFCSEGKVYLSMLEDTGFWLESKILSFIQDQEEDYLKLHRVIYQQIIQTYLTVCKDVVMVGLGDHQFQMQLLQRSLGIMQTVKGFFYVSLLLDILKEITGSSLIQKTDSDEEVAMLLDTVQKVFQKMLECIARSFRKQPEEGLRLLYSVQRPLHEFITAVQSRHTDTPVHRGVLSTLIAGPVVEISHQLRKVSDVEELTPPEHLSDLPPFSRCLIGIIIKSSNVVRSFLDELKACVASNDIEGIVCLTAAVHIILVINAGKHKSSKVREVAATVHRKLKTFMEITLEEDSIERFLYESSSRTLGELLNS [NCAPG2] | 0.33 | 0.687 | -0.0274 | 49.1 °C | 48.1 °C | -0.313
MSAAGLLAPAPAQAGAPPAPEYYPEEDEELESAEDDERSCRGRESDEDTEDASETDLAKHDEEDYVEMKEQMYQDKLASLKRQLQQLQEGTLQEYQKRMKKLDQQYKERIRNAELFLQLETEQVERNYIKEKKAAVKEFEDKKVELKENLIAELEEKKKMIENEKLTMELTGDSMEVKPIMTRKLRRRPNDPVPIPDKRRKPAPAQLNYLLTDEQIMEDLRTLNKLKSPKRPASPSSPEHLPATPAESPAQRFEARIEDGKLYYDKRWYHKSQAIYLESKDNQKLSCVISSVGANEIWVRKTSDSTKMRIYLGQLQRGLFVIRRRSAA [SUDS3] | 0.216 | 0.399 | 0.238 | 49 °C | 50.6 °C | 0.341
MSHLPMKLLRKKIEKRNLKLRQRNLKFQGASNLTLSETQNGDVSEETMGSRKVKKSKQKPMNVGLSETQNGGMSQEAVGNIKVTKSPQKSTVLTNGEAAMQSSNSESKKKKKKKRKMVNDAEPDTKKAKTENKGKSEEESAETTKETENNVEKPDNDEDESEVPSLPLGLTGAFEDTSFASLCNLVNENTLKAIKEMGFTNMTEIQHKSIRPLLEGRDLLAAAKTGSGKTLAFLIPAVELIVKLRFMPRNGTGVLILSPTRELAMQTFGVLKELMTHHVHTYGLIMGGSNRSAEAQKLGNGINIIVATPGRLLDHMQNTPGFMYKNLQCLVIDEADRILDVGFEEELKQIIKLLPTRRQTMLFSATQTRKVEDLARISLKKEPLYVGVDDDKANATVDGLEQGYVVCPSEKRFLLLFTFLKKNRKKKLMVFFSSCMSVKYHYELLNYIDLPVLAIHGKQKQNKRTTTFFQFCNADSGTLLCTDVAARGLDIPEVDWIVQYDPPDDPKEYIHRVGRTARGLNGRGHALLILRPEELGFLRYLKQSKVPLSEFDFSWSKISDIQSQLEKLIEKNYFLHKSAQEAYKSYIRAYDSHSLKQIFNVNNLNLPQVALSFGFKVPPFVDLNVNSNEGKQKKRGGGGGFGYQKTKKVEKSKIFKHISKKSSDSRQFSH [DDX18] | 1.68 | 1.02 | 1.1 | 51 °C | 52 °C | -2.49
MPVRGDRGFPPRRELSGWLRAPGMEELIWEQYTVTLQKDSKRGFGIAVSGGRDNPHFENGETSIVISDVLPGGPADGLLQENDRVVMVNGTPMEDVLHSFAVQQLRKSGKVAAIVVKRPRKVQVAALQASPPLDQDDRAFEVMDEFDGRSFRSGYSERSRLNSHGGRSRSWEDSPERGRPHERARSRERDLSRDRSRGRSLERGLDQDHARTRDRSRGRSLERGLDHDFGPSRDRDRDRSRGRSIDQDYERAYHRAYDPDYERAYSPEYRRGARHDARSRGPRSRSREHPHSRSPSPEPRGRPGPIGVLLMKSRANEEYGLRLGSQIFVKEMTRTGLATKDGNLHEGDIILKINGTVTENMSLTDARKLIEKSRGKLQLVVLRDSQQTLINIPSLNDSDSEIEDISEIESNRSFSPEERRHQYSDYDYHSSSEKLKERPSSREDTPSRLSRMGATPTPFKSTGDIAGTVVPETNKEPRYQEDPPAPQPKAAPRTFLRPSPEDEAIYGPNTKMVRFKKGDSVGLRLAGGNDVGIFVAGIQEGTSAEQEGLQEGDQILKVNTQDFRGLVREDAVLYLLEIPKGEMVTILAQSRADVYRDILACGRGDSFFIRSHFECEKETPQSLAFTRGEVFRVVDTLYDGKLGNWLAVRIGNELEKGLIPNKSRAEQMASVQNAQRDNAGDRADFWRMRGQRSGVKKNLRKSREDLTAVVSVSTKFPAYERVLLREAGFKRPVVLFGPIADIAMEKLANELPDWFQTAKTEPKDAGSEKSTGVVRLNTVRQIIEQDKHALLDVTPKAVDLLNYTQWFPIVIFFNPDSRQGVKTMRQRLNPTSNKSSRKLFDQANKLKKTCAHLFTATINLNSANDSWFGSLKDTIQHQQGEAVWVSEGKMEGMDDDPEDRMSYLTAMGADYLSCDSRLISDFEDTDGEGGAYTDNELDEPAEEPLVSSITRSSEPVQHEESIRKPSPEPRAQMRRAASSDQLRDNSPPPAFKPEPPKAKTQNKEESYDFSKSYEYKSNPSAVAGNETPGASTKGYPPPVAAKPTFGRSILKPSTPIPPQEGEEVGESSEEQDNAPKSVLGKVKIFEKMDHKARLQRMQELQEAQNARIEIAQKHPDIYAVPIKTHKPDPGTPQHTSSRPPEPQKAPSRPYQDTRGSYGSDAEEEEYRQQLSEHSKRGYYGQSARYRDTEL [TJP2] | 1 | 2.91 | 0.000921 | 48.1 °C | 49.2 °C | -0.246
MTDAAVSFAKDFLAGGVAAAISKTAVAPIERVKLLLQVQHASKQITADKQYKGIIDCVVRIPKEQGVLSFWRGNLANVIRYFPTQALNFAFKDKYKQIFLGGVDKRTQFWLYFAGNLASGGAAGATSLCFVYPLDFARTRLAADVGKAGAEREFRGLGDCLVKIYKSDGIKGLYQGFNVSVQGIIIYRAAYFGIYDTAKGMLPDPKNTHIVISWMIAQTVTAVAGLTSYPFDTVRRRMMMQSGRKGTDIMYTGTLDCWRKIARDEGGKAFFKGAWSNVLRGMGGAFVLVLYDEIKKYT [SLC25A5] | -2.25 | -3.52 | -0.12 | 56.9 °C | 55.9 °C | -0.308
MAAQKINEGLEHLAKAEKYLKTGFLKWKPDYDSAASEYGKAAVAFKNAKQFEQAKDACLREAVAHENNRALFHAAKAYEQAGMMLKEMQKLPEAVQLIEKASMMYLENGTPDTAAMALERAGKLIENVDPEKAVQLYQQTANVFENEERLRQAVELLGKASRLLVRGRRFDEAALSIQKEKNIYKEIENYPTCYKKTIAQVLVHLHRNDYVAAERCVRESYSIPGFNGSEDCAALEQLLEGYDQQDQDQVSDVCNSPLFKYMDNDYAKLGLSLVVPGGGIKKKSPATPQAKPDGVTATAADEEEDEYSGGLC [NAPG] | -0.512 | 0.117 | 0.178 | 49.6 °C | 49.9 °C | 0.528
CUL7 | 0.604 | 0.125 | -0.279 |  | 49.1 °C | 0.0417
RPIA | -0.283 | -2.14 | -0.157 | 56.4 °C | 55.2 °C | 0.208
RNF213 | 0.57 | 1.78 | -0.11 | 49.9 °C | 49.8 °C | -0.346
